The values below come from the supplement of paper PMC9112550, “Optimization of the antimicrobial peptide Bac7 by deep mutational scanning” (BMC Biology, 2022).

The subject of the data set is Escherichia coli TOP10. Kind of data set: shrunken log2 fold change of peptide-encoding DNA abundance (4.5 h post-induction vs induction); higher = less antimicrobial activity (less host growth inhibition). As to conditions: time post-induction: 4.5 h; library: site-saturation at positions 5, 18, 19, 20.
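Note: peptides expressed intracellularly from a pBAD plasmid library in pooled LB shake-flask culture, induced with 0.3% L-arabinose, DNA abundance read by NGS, three biological replicates, DESeq2 with apeglm shrinkage.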

For RRIRSRPPRLPRPRPRPPMNPRP, the “shrunken log2 fold change” value was -0.347. The value for RRIRGRPPRLPRPRPRPRHSPRP was 0.242; that for RRIRKRPPRLPRPRPRPCNRPRP was 0.0247.

RRIRDRPPRLPRPRPRPNYCPRP: the “shrunken log2 fold change” value is 0.0253. On to RRIRYRPPRLPRPRPRPQEHPRP, for which the “shrunken log2 fold change” value is -0.65. For the sequence RRIRFRPPRLPRPRPRPDREPRP, the “shrunken log2 fold change” value was -0.006.

Take RRIRFRPPRLPRPRPRPRWQPRP: the “shrunken log2 fold change” value amounted to 0.229. The result for RRIRPRPPRLPRPRPRPRYRPRP reads 0.0725. The result for RRIRNRPPRLPRPRPRPCCRPRP reads -0.0438; that for RRIRERPPRLPRPRPRPNDIPRP, 0.0203. The value for RRIRPRPPRLPRPRPRPGHWPRP was 0.123; that for RRIRMRPPRLPRPRPRPIANPRP was 0.333; that for RRIRARPPRLPRPRPRPIARPRP was 1.01.

Turning to RRIRMRPPRLPRPRPRPASPPRP, the “shrunken log2 fold change” value is 0.14.

On to RRIRKRPPRLPRPRPRPRWEPRP, for which the “shrunken log2 fold change” value came out at 0.0207. The result for RRIRDRPPRLPRPRPRPATFPRP reads 0.222; that for RRIRFRPPRLPRPRPRPYVTPRP, -0.148; that for RRIRHRPPRLPRPRPRPTTYPRP, -0.9. Turning to RRIRSRPPRLPRPRPRPEVAPRP, the “shrunken log2 fold change” value was found to be 0.102.

Take RRIRHRPPRLPRPRPRPSFFPRP: the “shrunken log2 fold change” value is -0.41. On to RRIRNRPPRLPRPRPRPQRYPRP, for which the “shrunken log2 fold change” value is -0.602. In the case of RRIRFRPPRLPRPRPRPITVPRP, the “shrunken log2 fold change” value was -0.177. For RRIRFRPPRLPRPRPRPSTHPRP, the “shrunken log2 fold change” value is -0.569. As to RRIRVRPPRLPRPRPRPVSNPRP, the “shrunken log2 fold change” value is -0.0653.

As for RRIRPRPPRLPRPRPRPGPWPRP, the “shrunken log2 fold change” value stood at 0.0326. The result for RRIRSRPPRLPRPRPRPLSDPRP reads -0.0692; that for RRIRGRPPRLPRPRPRPSCLPRP, 0.571; that for RRIRWRPPRLPRPRPRPWQHPRP, -0.0883.

In the case of RRIRVRPPRLPRPRPRPALNPRP, the “shrunken log2 fold change” value is -0.142. The result for RRIRFRPPRLPRPRPRPCWMPRP reads -0.0459.

In the case of RRIRWRPPRLPRPRPRPEEHPRP, the “shrunken log2 fold change” value turned out to be 0.23.

As for RRIRYRPPRLPRPRPRPYGMPRP, the “shrunken log2 fold change” value was -0.438. On to RRIRNRPPRLPRPRPRPFHWPRP, for which the “shrunken log2 fold change” value is -0.186. In the case of RRIRKRPPRLPRPRPRPDCEPRP, the “shrunken log2 fold change” value worked out at 1.96. Take RRIRVRPPRLPRPRPRPGMPPRP: the “shrunken log2 fold change” value was determined as 0.0671. For RRIRARPPRLPRPRPRPPMCPRP, the “shrunken log2 fold change” value was determined as 0.00915. The result for RRIRSRPPRLPRPRPRPGKDPRP reads 0.099. For RRIRGRPPRLPRPRPRPWEWPRP, the “shrunken log2 fold change” value was found to be 0.911. The value for RRIRLRPPRLPRPRPRPSIWPRP was -0.548; that for RRIRKRPPRLPRPRPRPEDFPRP was 0.24; that for RRIRIRPPRLPRPRPRPNEEPRP was -0.179. As to RRIRLRPPRLPRPRPRPDIHPRP, the “shrunken log2 fold change” value worked out at 0.126. The result for RRIRYRPPRLPRPRPRPRNAPRP reads 0.00628. In the case of RRIRARPPRLPRPRPRPLAMPRP, the “shrunken log2 fold change” value came to 0.474. As for RRIRERPPRLPRPRPRPHEQPRP, the “shrunken log2 fold change” value was -0.0112. RRIRIRPPRLPRPRPRPPTWPRP: the “shrunken log2 fold change” value is -0.101.

With RRIRIRPPRLPRPRPRPNDSPRP, the “shrunken log2 fold change” value is -0.137. The result for RRIRARPPRLPRPRPRPVFLPRP reads 1.14. The result for RRIRCRPPRLPRPRPRPIPSPRP reads -0.308; that for RRIRERPPRLPRPRPRPNIFPRP, -0.302. The value for RRIRERPPRLPRPRPRPFMYPRP was -0.551. As for RRIRIRPPRLPRPRPRPWGKPRP, the “shrunken log2 fold change” value was -0.814. The result for RRIRTRPPRLPRPRPRPIMNPRP reads 0.0436; that for RRIRPRPPRLPRPRPRPMHGPRP, 0.0373; that for RRIRARPPRLPRPRPRPPIQPRP, 0.431.

RRIRNRPPRLPRPRPRPFGSPRP: the “shrunken log2 fold change” value is -0.0105. For RRIRTRPPRLPRPRPRPVIDPRP, the “shrunken log2 fold change” value is -0.0797.

Consider RRIRQRPPRLPRPRPRPHIKPRP, for which the “shrunken log2 fold change” value is -0.878. RRIRERPPRLPRPRPRPALYPRP: the “shrunken log2 fold change” value is -0.129. On to RRIRSRPPRLPRPRPRPSVHPRP, for which the “shrunken log2 fold change” value is -0.352. Turning to RRIRFRPPRLPRPRPRPWGFPRP, the “shrunken log2 fold change” value worked out at 0.0091. As to RRIRNRPPRLPRPRPRPQEAPRP, the “shrunken log2 fold change” value is -0.0152. The value for RRIRNRPPRLPRPRPRPYMGPRP was -1.97. The value for RRIRWRPPRLPRPRPRPTLAPRP was 0.754; that for RRIRSRPPRLPRPRPRPEFNPRP was 0.24; that for RRIRPRPPRLPRPRPRPSETPRP was -0.182. On to RRIRGRPPRLPRPRPRPYQCPRP, for which the “shrunken log2 fold change” value was -0.0235.

Take RRIRDRPPRLPRPRPRPWSFPRP: the “shrunken log2 fold change” value was determined as 0.0765. The result for RRIRLRPPRLPRPRPRPSRRPRP reads -0.332; that for RRIRARPPRLPRPRPRPVSMPRP, 0.229; that for RRIRDRPPRLPRPRPRPTIFPRP, 0.0643. On to RRIRPRPPRLPRPRPRPIFHPRP, for which the “shrunken log2 fold change” value was -0.0968. Regarding RRIRARPPRLPRPRPRPPKGPRP, the “shrunken log2 fold change” value worked out at 0.654. Regarding RRIRYRPPRLPRPRPRPHQLPRP, the “shrunken log2 fold change” value is -0.191. The value for RRIRIRPPRLPRPRPRPSYNPRP was -1.15; that for RRIRIRPPRLPRPRPRPRYFPRP was -0.769. For the sequence RRIRDRPPRLPRPRPRPSFKPRP, the “shrunken log2 fold change” value was -0.0471. The result for RRIRHRPPRLPRPRPRPNCSPRP reads 0.0841.

As to RRIRNRPPRLPRPRPRPHTYPRP, the “shrunken log2 fold change” value is -0.501. As to RRIRRRPPRLPRPRPRPTVRPRP, the “shrunken log2 fold change” value was -0.00514. The value for RRIRSRPPRLPRPRPRPAMLPRP was 0.0679; that for RRIRDRPPRLPRPRPRPRWTPRP was 0.289. The value for RRIRGRPPRLPRPRPRPANHPRP was 0.0248; that for RRIRPRPPRLPRPRPRPFCMPRP was -0.047; that for RRIRPRPPRLPRPRPRPIQTPRP was -0.0617. On to RRIRCRPPRLPRPRPRPYDDPRP, for which the “shrunken log2 fold change” value is -0.396.

Turning to RRIRYRPPRLPRPRPRPMKSPRP, the “shrunken log2 fold change” value is -0.416. The result for RRIRPRPPRLPRPRPRPQWSPRP reads -0.226; that for RRIRQRPPRLPRPRPRPSKYPRP, -0.0779; that for RRIRCRPPRLPRPRPRPTECPRP, -0.168. The result for RRIRIRPPRLPRPRPRPGDMPRP reads -0.763. The value for RRIRARPPRLPRPRPRPKEQPRP was -0.111; that for RRIRTRPPRLPRPRPRPSAPPRP was 0.269. As to RRIRVRPPRLPRPRPRPQETPRP, the “shrunken log2 fold change” value was 0.0431. The value for RRIRNRPPRLPRPRPRPNCWPRP was 0.241. As to RRIRGRPPRLPRPRPRPLFMPRP, the “shrunken log2 fold change” value is 0.223. For RRIRKRPPRLPRPRPRPSCKPRP, the “shrunken log2 fold change” value is 0.034. On to RRIRLRPPRLPRPRPRPARIPRP, for which the “shrunken log2 fold change” value was determined as 0.00509. The result for RRIRCRPPRLPRPRPRPDTGPRP reads -0.879; that for RRIRRRPPRLPRPRPRPQLSPRP, 0.976. The result for RRIRVRPPRLPRPRPRPPFWPRP reads 0.46; that for RRIRHRPPRLPRPRPRPTHHPRP, -0.132; that for RRIRIRPPRLPRPRPRPIMCPRP, -0.0373. As to RRIRLRPPRLPRPRPRPTTAPRP, the “shrunken log2 fold change” value turned out to be 0.115. On to RRIRRRPPRLPRPRPRPIWMPRP, for which the “shrunken log2 fold change” value stood at 0.0986. As for RRIRLRPPRLPRPRPRPFTDPRP, the “shrunken log2 fold change” value is -0.317.

Consider RRIRNRPPRLPRPRPRPWKLPRP, for which the “shrunken log2 fold change” value was -0.0134. The result for RRIRLRPPRLPRPRPRPPYIPRP reads -0.081; that for RRIRKRPPRLPRPRPRPPGTPRP, 0.794; that for RRIRERPPRLPRPRPRPDSTPRP, -0.0931.

Take RRIRQRPPRLPRPRPRPRHDPRP: the “shrunken log2 fold change” value was 0.0818.

As for RRIRPRPPRLPRPRPRPNPDPRP, the “shrunken log2 fold change” value amounted to 0.0105. As for RRIRGRPPRLPRPRPRPNYWPRP, the “shrunken log2 fold change” value was -0.115. Consider RRIRHRPPRLPRPRPRPRNYPRP, for which the “shrunken log2 fold change” value is -0.282. The result for RRIRPRPPRLPRPRPRPPWFPRP reads 0.32. Take RRIRCRPPRLPRPRPRPYKSPRP: the “shrunken log2 fold change” value was -1.19. With RRIRWRPPRLPRPRPRPHFCPRP, the “shrunken log2 fold change” value is -0.0299. Take RRIRLRPPRLPRPRPRPQFAPRP: the “shrunken log2 fold change” value came out at 0.0774.

For the sequence RRIRMRPPRLPRPRPRPNMFPRP, the “shrunken log2 fold change” value came out at 0.0213. Take RRIRHRPPRLPRPRPRPIEIPRP: the “shrunken log2 fold change” value was -0.161. The value for RRIRCRPPRLPRPRPRPENTPRP was -0.297; that for RRIRFRPPRLPRPRPRPKQQPRP was 0.146; that for RRIRFRPPRLPRPRPRPFLFPRP was -0.457. Take RRIRKRPPRLPRPRPRPVACPRP: the “shrunken log2 fold change” value is -0.0228. Take RRIRERPPRLPRPRPRPFFMPRP: the “shrunken log2 fold change” value was -0.0808.
